Molecular target: eCry3.1Ab hybrid insecticidal protein
Assay: direct ELISA: eCry3.1Ab coated at 1 ug/ml, RGS-His HRP detection

B1: synNAPS13 variant Y44A (designed binder)
chain: RGSHHHHHHGSMVKVKFKRWGEEKEVDTSKILHVLRVGKYVRFSYDDNGKLGAGAVTEKDAPKELLDMLARAEREKK
Binding (OD 450 nm): 0.4 OD 450 nm

From patent US20210181204A1
